IntAct's records for PubMed 23893131

B1: Glia maturation factor gamma (Mus musculus), Q9ERL7 (parent)
chain: MSDSLVVCEVDPELKETLRKFRFRKETNNAAIIMKVDKDRQMVVLEDELQNISPEELKLELPERQPRFVVYSYKYVHDDGRVSYPLCFIFSSPVGCKPEQQMMYAGSKNRLVQTAELTKVFEIRTTDDLTETWLKEKLAFFR

Variants of: B1
Conditions: with arpc2_bovin ARPC2, Q3MHR7

Row | Variant | effect of a mutation on the interaction
1 | D128K | decreasing interaction strength
2 | R124E | decreasing interaction strength
3 | M102A | decreasing interaction strength
